Paper doi:10.1101/754457

Key:
[1] = biological target: Mto2-134A136A (full-length, recombinant) (S. pombe) (UniProt Q9USP7); test: SEC-MALS
[2] = biological target: Mto2-134AAA (full-length, recombinant) (S. pombe) (UniProt Q9USP7); test: SEC-MALS

Substance | stoichiometry N [1] | stoichiometry N [2]
Mto2-134A136A (full-length, recombinant) (from UniProt Q9USP7 1-397) (natural protein) | 2 | 
Mto2-134AAA (full-length, recombinant) (from UniProt Q9USP7 1-397) (natural protein) |  | 2
